Results published in patent US20220356245A1 (FORTY SEVEN, published 2022).
Where two headings read alike, the source gives them in different places.

Assays:
[1] = biological target: T1, human CD47 (hCD47) expressed on cells (human, UniProt Q08722 19-323); test: flow cytometry, Raji cells
T1 construct: Transfected CHO cells or endogenous CD47 of human cells; also called CHO-hCD47; CD47 on Raji cells
Experimental: Raji cells (ATCC-CLL-86; 2×10⁵ cells/well of 96-well plate) were first incubated at +4° C. for 30 minutes with serial dilutions of anti-CD47 antibodies or control isotype antibody (in mIgG2a or mIgG1 format). The cells were then washed and incubated for 30 minutes at +4° C. with a PE-conjugated F(ab)′2 goat anti-mouse IgG antibody ( 1/100 dilution, Beckman Coulter). After washings, the fluorescence of the cells was analyzed by flow cytometry on an Accuri-C6 flow cytometer (BD Biosciences).
The delta of MFI, representing the difference between the intensity measured with the tested antibody and the intensity in the absence of antibody, was calculated for each antibody concentration and the values were plotted against the antibody concentrations. The EC50 values were then calculated by using a nonlinear regression analysis model of the GraphPad Prism software.

[2] = biological target: T2, hu-sCD47-6His; extracellular domain of human CD47 antigen with 6His-tag (human); test: SPR Biacore T200, antibody captured, hCD47-his analyte;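 also: antibodies captured on anti-IgG (Fc) CM5 chip, five sequential 10 min antigen injections at rising concentrations, reference flow cell and antigen-free cycle as controls, 1:1 model fit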
T2 construct: also called hCD47-his; soluble hCD47
Text: (§1) An anti-human or anti-mouse IgG (Fc) was first immobilized on the surface of Serie S Sensor Chips CM5 using the human or mouse antibody capture and amine coupling kits, following the manufacturer's instructions (GE Healthcare). […] The mouse, chimerized or humanized antibodies to be tested were then captured onto the appropriate anti-mouse or anti-human IgG surface in all flow cells except flow cell 1 used as control, at concentration and contact time adjusted so that ˜300 RU were captured on the surface. Binding kinetics were studied by passing increasing concentrations of hCD47-his in a series of five 10 minute injections through all flow cells at a rate of 30 μL/min. […] Following the final injection, buffer was passed across each flow cell for 60 minutes (mouse) or 30 minutes (human) to monitor the dissociation of bound antigen. Regeneration of the binding surface was carried out at the end of the cycle by flowing 3 M MgCl₂ for 60 s at 20 μL/min followed by 10 mM glycine-HCl, pH 1.7 for 180 s at 10 μl/min (for human) or by flowing 10 mM glycine-HCl, ph 1.7 for 360 s at 10 μl/min (for mouse). A second cycle with the same antibodies but no antigen was run as a control. Kinetics binding constants were estimated by non-linear fitting of the sensogram data to the 1:1 binding model provided by the Biacore T200 evaluation software.

[3] = biological target: T3, mouse CD47 (mCD47) expressed on CHO cells (mouse, UniProt Q61735 19-303); test: flow cytometry, CHO-mCD47 cells (not shown)
T3 construct: whole, on cells; also called CHO-mCD47
T3 sequence (looked up): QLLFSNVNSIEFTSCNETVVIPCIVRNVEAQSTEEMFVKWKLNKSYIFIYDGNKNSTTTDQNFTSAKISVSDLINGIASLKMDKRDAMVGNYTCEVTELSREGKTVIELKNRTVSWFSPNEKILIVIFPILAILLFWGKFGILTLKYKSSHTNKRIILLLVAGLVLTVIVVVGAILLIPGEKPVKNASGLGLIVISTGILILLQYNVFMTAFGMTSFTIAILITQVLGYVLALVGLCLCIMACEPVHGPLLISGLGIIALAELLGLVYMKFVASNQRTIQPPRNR

[4] = biological target: T1, human CD47 (hCD47) expressed on cells; test: flow cytometry, Raji cells; remark: listed apart in the source
[5] = biological target: T1, human CD47 (hCD47) expressed on cells; test: flow cytometry, Raji cells, competition with hSIRPα
[6] = biological target: T2, hu-sCD47-6His; extracellular domain of …; test: SPR Biacore; head read as x 10^-4;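 as to Kd: antibodies captured on anti-IgG CM5 chip, soluble His-tagged human CD47 flowed over at rising concentrations, five 10 min injections, flow cell 1 as reference, 1:1 model fit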;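 as to kon: antibodies captured on anti-IgG CM5 chip, soluble His-tagged human CD47 flowed over at rising concentrations, five 10 min injections, flow cell 1 as reference, 1:1 model fit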
Text: as §1

[7] = biological target: T2, hu-sCD47-6His; extracellular domain of …; test: SPR Biacore;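 also: antibodies captured on anti-IgG CM5 chip, soluble His-tagged human CD47 flowed over at rising concentrations, five 10 min injections, flow cell 1 as reference, 1:1 model fit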
Text: as §1

Binder	EC50 [1] [µg/mL]	Kd [2] [nM]	koff [2] [s⁻¹]	kon [2] [M⁻¹ s⁻¹]	binding result [3]	EC50 [4] [µg/mL]	IC50 [5] [µg/mL]	koff [6] [s⁻¹]	Kd [7] [nM]	kon [7] [M⁻¹ s⁻¹]
h20-VH2-VL3 (candidate 20.8) (antibody, human IgG4 S228P, kappa, V domains shown, hIgG4-S228P/kappa; also called h20-H2-L3) VH: QVQLVQSGAEVKKPGASVKVSCKASGYSFTDYYINWVRQAPGQGLEWMGRIYPGIGNTYYNKKFKGRVTITRDTSASTAYMELSSLRSEDTAVYYCARGHYGRGMDYWGQGTLVTVSS VL: EIVLTQSPDSLAVSLGERATINCKSSQSLLNSIDQKNYLAWYQQKAGQSPKLLIYFASTKESGVPDRFSGSGSGTDFTLTIDSLQAEDVAVYYCQQHYSTPWTFGGGTKVEIKR					no binding	0.184	0.079	0.000628	3.65	189000
h20-VH3-VL5 (candidate 20.15) (antibody, human IgG4 S228P, kappa, V domains shown, hIgG4-S228P/kappa; also called h20-H3-L5) VH: QVQLVQSGAEVKKPGASVKVSCKASGYSFTDYYINWVRQAPGQGLEWMGRIYPGIGNTYYNKKFKGRVTVTRDTSISTAHMELSSLRSDDTAVYYCARGHYGRGMDYWGQGTAVTVSS VL: DIVMTQSPDSLAVSLGERATINCKSSQSLLNSIDQKNYLAWYQQKPGQPPKLLIYFASTKESGVPDRFSGSGSGTDFTLTISGLQAEDVAVYFCQQHYSTPWTFGGGTKVEIRR					no binding	0.143	0.113	0.000528	2.36	242000
h20-VH2-VL4 (candidate 20.9) (antibody, human IgG4 S228P, kappa, V domains shown, hIgG4-S228P/kappa; also called h20-H2-L4) VH: QVQLVQSGAEVKKPGASVKVSCKASGYSFTDYYINWVRQAPGQGLEWMGRIYPGIGNTYYNKKFKGRVTITRDTSASTAYMELSSLRSEDTAVYYCARGHYGRGMDYWGQGTLVTVSS VL: DIVMTQSPDSLAVSLGERATINCKSSQSLLNSIDQKNYLAWYQQKPGQPPKLLIYFASTKESGVPDRFSGSGSGTDFTLTISSLQAEDVAVYFCQQHYSTPWTFGGGAKVEIKR					no binding	0.173	0.123	0.000632	3.34	219000
h20-VH1-VL4 (candidate 20.4) (antibody, human IgG4 S228P, kappa, V domains shown, hIgG4-S228P/kappa; also called h20-H1-L4) VH: QVQLLESGAVLARPGTSVKISCKASGYSFTDYYINWVKQRPGQGLEWIGRIYPGIGNTYYNKKFKGRAKLTAATSASIAYLEFSSLTNEDSAVYYCARGHYGRGMDYWGQGTLVTVSS VL: DIVMTQSPDSLAVSLGERATINCKSSQSLLNSIDQKNYLAWYQQKPGQPPKLLIYFASTKESGVPDRFSGSGSGTDFTLTISSLQAEDVAVYFCQQHYSTPWTFGGGAKVEIKR					no binding	0.248	0.261	0.000772	7.58	126000
h20-VH1-VL3 (candidate 20.3) (antibody, human IgG4 S228P, kappa, V domains shown, hIgG4-S228P/kappa; also called h20-H1-L3) VH: QVQLLESGAVLARPGTSVKISCKASGYSFTDYYINWVKQRPGQGLEWIGRIYPGIGNTYYNKKFKGRAKLTAATSASIAYLEFSSLTNEDSAVYYCARGHYGRGMDYWGQGTLVTVSS VL: EIVLTQSPDSLAVSLGERATINCKSSQSLLNSIDQKNYLAWYQQKAGQSPKLLIYFASTKESGVPDRFSGSGSGTDFTLTIDSLQAEDVAVYYCQQHYSTPWTFGGGTKVEIKR					no binding	0.184	0.228	0.000839	7.33	131000
h20-VH5-VL4 (candidate 20.24) (antibody, human IgG4 S228P, kappa, V domains shown, hIgG4-S228P/kappa; also called h20-H5-L4) VH: QVQLVQSGAEVKKPGASVKVSCKASGYSFTDYYINWVRQAPGQGLEWMGRIYPGIGNTYYNKKFKGRVTMTRYTSISTAYMELSRLRSDDTAVYFCARGHYGRGMDYWGQGTTVTVSS VL: DIVMTQSPDSLAVSLGERATINCKSSQSLLNSIDQKNYLAWYQQKPGQPPKLLIYFASTKESGVPDRFSGSGSGTDFTLTISSLQAEDVAVYFCQQHYSTPWTFGGGAKVEIKR					no binding	0.177	0.133	0.00102	11	103000
h20-VH5-VL3 (candidate 20.23) (antibody, human IgG4 S228P, kappa, V domains shown, hIgG4-S228P/kappa; also called h20-H5-L3) VH: QVQLVQSGAEVKKPGASVKVSCKASGYSFTDYYINWVRQAPGQGLEWMGRIYPGIGNTYYNKKFKGRVTMTRYTSISTAYMELSRLRSDDTAVYFCARGHYGRGMDYWGQGTTVTVSS VL: EIVLTQSPDSLAVSLGERATINCKSSQSLLNSIDQKNYLAWYQQKAGQSPKLLIYFASTKESGVPDRFSGSGSGTDFTLTIDSLQAEDVAVYYCQQHYSTPWTFGGGTKVEIKR					no binding	0.19	0.169	0.000841	9.93	104000

Other lines, results leading:

EC50 [1] [µg/mL]	Kd [2] [nM]	koff [2] [s⁻¹]	kon [2] [M⁻¹ s⁻¹]	binding result [3]	EC50 [4] [µg/mL]	IC50 [5] [µg/mL]	koff [6] [s⁻¹]	Kd [7] [nM]	kon [7] [M⁻¹ s⁻¹]	Binder
0.301										5A3M3 (mouse antibody from Novimmune) (antibody, V domains shown) VH: not shown VL: DIQMTQSPSSLSASVGDRVTITCQASQSISSYLNWYQQKPGKAPKLLIYAASSLETGVPSRFSGSGSGTDFTFTISSLQPEDIATYYCQQKHPRGPRTFGQGTKVEIKR
	5.14	6.59e-05	12900							B6H12 (mouse IgG1, Abcam) (antibody, V domains shown) VH: EVQLVESGGDLVKPGGSLKLSCAASGFTFSGYGMSWVRQTPDKRLEWVATITSGGTYTYYPDSVKGRFTISRDNAKNTLYLQIDSLKSEDTAIYFCARSLAGNAMDYWGQGTSVTVSS VL: DIVMTQSPATLSVTPGDRVSLSCRASQTISDYLHWYQQKSHESPRLLIKFASQSISGIPSRFSGSGSGSDFTLSINSVEPEDVGVYYCQNGHGFPRTFGGGTKLEIK
				no binding	0.206	0.111	0.000595	3.53	198000	h20-VH1-VL5 (candidate 20.5) (antibody, human IgG4 S228P, kappa, V domains shown, hIgG4-S228P/kappa; also called h20-H1-L5) VH: QVQLLESGAVLARPGTSVKISCKASGYSFTDYYINWVKQRPGQGLEWIGRIYPGIGNTYYNKKFKGRAKLTAATSASIAYLEFSSLTNEDSAVYYCARGHYGRGMDYWGQGTLVTVSS VL: DIVMTQSPDSLAVSLGERATINCKSSQSLLNSIDQKNYLAWYQQKPGQPPKLLIYFASTKESGVPDRFSGSGSGTDFTLTISGLQAEDVAVYFCQQHYSTPWTFGGGTKVEIRR
				no binding	0.159	0.112	0.00109	9.69	126000	h20-VH5-VL5 (candidate 20.25) (antibody, human IgG4 S228P, kappa, V domains shown, hIgG4-S228P/kappa; also called h20-H5-L5) VH: QVQLVQSGAEVKKPGASVKVSCKASGYSFTDYYINWVRQAPGQGLEWMGRIYPGIGNTYYNKKFKGRVTMTRYTSISTAYMELSRLRSDDTAVYFCARGHYGRGMDYWGQGTTVTVSS VL: DIVMTQSPDSLAVSLGERATINCKSSQSLLNSIDQKNYLAWYQQKPGQPPKLLIYFASTKESGVPDRFSGSGSGTDFTLTISGLQAEDVAVYFCQQHYSTPWTFGGGTKVEIRR
				no binding	0.164	0.142	0.000733	4.37	180000	h20-VH4-VL3 (candidate 20.18) (antibody, human IgG4 S228P, kappa, V domains shown, hIgG4-S228P/kappa; also called h20-H4-L3) VH: QVQLVQSGAEVKKPGSSVKVSCKASGYSFTDYYINWVRQAPGQGLEWMGRIYPGIGNTYYNKKFKGRVTITADKSTSTAYMELSSLRSEDTAVYYCARGHYGRGMDYWGQGTTVTVSS VL: EIVLTQSPDSLAVSLGERATINCKSSQSLLNSIDQKNYLAWYQQKAGQSPKLLIYFASTKESGVPDRFSGSGSGTDFTLTIDSLQAEDVAVYYCQQHYSTPWTFGGGTKVEIKR
				no binding	0.143	0.135	0.000581	3.02	216000	h20-VH3-VL4 (candidate 20.14) (antibody, human IgG4 S228P, kappa, V domains shown, hIgG4-S228P/kappa; also called h20-H3-L4) VH: QVQLVQSGAEVKKPGASVKVSCKASGYSFTDYYINWVRQAPGQGLEWMGRIYPGIGNTYYNKKFKGRVTVTRDTSISTAHMELSSLRSDDTAVYYCARGHYGRGMDYWGQGTAVTVSS VL: DIVMTQSPDSLAVSLGERATINCKSSQSLLNSIDQKNYLAWYQQKPGQPPKLLIYFASTKESGVPDRFSGSGSGTDFTLTISSLQAEDVAVYFCQQHYSTPWTFGGGAKVEIKR
